B1: Telethonin (Homo sapiens), O15273 (parent)
chain: MATSELSCEVSEENCERREAFWAEWKDLTLSTRPEEGCSLHEEDTQRHETYHQQGQCQVLVQRSPWLMMRMGILGRGLQEYQLPYQRVLPLPIFTPAKMGATKEEREDTPIQLQELLALETALGGQCVDRQEVAEITKQLPPVVPVSKPGALRRSLSRSMSQEAQRG
partner: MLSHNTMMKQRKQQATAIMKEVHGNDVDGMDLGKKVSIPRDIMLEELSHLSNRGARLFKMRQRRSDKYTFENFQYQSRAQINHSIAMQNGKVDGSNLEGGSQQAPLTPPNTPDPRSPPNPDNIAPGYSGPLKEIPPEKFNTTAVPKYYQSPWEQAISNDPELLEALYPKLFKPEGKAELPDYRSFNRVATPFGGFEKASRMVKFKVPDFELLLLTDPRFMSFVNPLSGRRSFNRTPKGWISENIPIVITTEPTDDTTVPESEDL
B2: Telethonin (Homo sapiens), O15273 (parent)
chain: B1 chain

We go through 8 variants from IntAct's records for PubMed 15582318.

In one test the parent is B1. As to conditions: with myoz2_human MYOZ2, Q9NPC6.
R153H: the “effect of a mutation on the interaction” value is “increasing interaction strength”.
For R87Q, the “effect of a mutation on the interaction” value is on record as “decreasing interaction strength”.
T137I: the “effect of a mutation on the interaction” value was “increasing interaction strength”.
The same measure, in the same setting: the entry for E132Q is “decreasing interaction strength”.

A further test covers variants of B2. As to conditions: with titin_human TTN.
Consider R153H, for which the “effect of a mutation on the interaction” value is listed as “increasing interaction strength”.
On the same count and under the same terms, with E132Q the entry was “decreasing interaction strength”; with R87Q, “decreasing interaction strength”; with T137I, “increasing interaction strength”.

The next test covers variants of B2. As to conditions: with csrp3_human CSRP3, P50461.
Sequence of csrp3_human CSRP3, P50461 (P50461 whole entry): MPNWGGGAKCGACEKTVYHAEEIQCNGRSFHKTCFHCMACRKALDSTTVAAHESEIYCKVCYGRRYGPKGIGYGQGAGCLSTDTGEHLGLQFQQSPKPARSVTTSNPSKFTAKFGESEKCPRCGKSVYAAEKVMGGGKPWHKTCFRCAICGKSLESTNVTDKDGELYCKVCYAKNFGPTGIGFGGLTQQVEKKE
Regarding E132Q, the “effect of a mutation on the interaction” value is given as “decreasing interaction strength”.
For R87Q, the “effect of a mutation on the interaction” value is “decreasing interaction strength”.
